# Measured values: patent US20120052069A1 (Amgen, published 2012)
# B1: human FGF21 (wild-type mature FGF21) (ligand)
# chain: HPIPDSSPLLQFGGQVRQRYLYTDDAQQTEAHLEIREDGTVGGAADQSPESLLQLKALKPGVIQILGVKTSRFLCQRPDGALYGSLHFDPEACSFRELLLEDGYNVYQSEAHGLPLHLPGNKSPHRDPAPRGPARFLPLPGLPPAPPEPPGILAPQPPDVGSSDPLSMVGPSQGRSPSYAS
# Target: β-Klotho overexpressed in recombinant human 293T kidney cells
# Assay: cell-based or functional assay
binder,measurement,value
B1,"EC50 (nM), ELK luciferase assay",0.4 nM
same,"Efficacy, ELK luciferase assay",100%
